Ends that are not written are not given here.
Assays:
Type in all cases: biochemical
human fibrinogen = biological target: T1, human fibrinogen (Homo sapiens, UniProt P02675+P02679); test: Clotting activity of dendrimers extracted from gelatin paste after gamma irradiation and storage; conditions: fibrinogen 3 mg/ml, 37° C.
T1 sequence (P02679 27-433 limits assumed): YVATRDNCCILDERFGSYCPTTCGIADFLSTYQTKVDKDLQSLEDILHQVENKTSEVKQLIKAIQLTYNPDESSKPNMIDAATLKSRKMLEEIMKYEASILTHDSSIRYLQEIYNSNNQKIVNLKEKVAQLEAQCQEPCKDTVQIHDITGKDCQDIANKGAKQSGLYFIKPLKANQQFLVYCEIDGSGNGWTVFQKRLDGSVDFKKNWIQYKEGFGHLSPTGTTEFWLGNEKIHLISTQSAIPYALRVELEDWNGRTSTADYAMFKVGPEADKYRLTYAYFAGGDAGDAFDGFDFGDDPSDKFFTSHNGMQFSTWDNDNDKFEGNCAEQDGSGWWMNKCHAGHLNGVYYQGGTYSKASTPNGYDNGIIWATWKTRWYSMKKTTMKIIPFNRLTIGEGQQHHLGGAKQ
T1 sequence (P02675 31-491): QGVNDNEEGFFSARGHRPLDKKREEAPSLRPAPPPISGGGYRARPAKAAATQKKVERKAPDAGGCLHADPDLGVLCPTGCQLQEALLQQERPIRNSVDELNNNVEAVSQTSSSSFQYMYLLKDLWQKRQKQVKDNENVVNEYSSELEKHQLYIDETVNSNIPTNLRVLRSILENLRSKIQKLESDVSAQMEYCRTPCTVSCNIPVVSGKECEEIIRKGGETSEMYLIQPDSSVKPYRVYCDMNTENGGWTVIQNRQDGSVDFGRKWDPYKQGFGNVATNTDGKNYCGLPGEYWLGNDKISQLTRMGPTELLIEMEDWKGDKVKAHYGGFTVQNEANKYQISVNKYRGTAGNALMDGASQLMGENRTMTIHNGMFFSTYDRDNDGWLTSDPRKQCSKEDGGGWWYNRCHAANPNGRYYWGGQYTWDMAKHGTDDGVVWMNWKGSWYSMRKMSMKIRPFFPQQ
T1 sequence (P02671 20-629 partner limits assumed): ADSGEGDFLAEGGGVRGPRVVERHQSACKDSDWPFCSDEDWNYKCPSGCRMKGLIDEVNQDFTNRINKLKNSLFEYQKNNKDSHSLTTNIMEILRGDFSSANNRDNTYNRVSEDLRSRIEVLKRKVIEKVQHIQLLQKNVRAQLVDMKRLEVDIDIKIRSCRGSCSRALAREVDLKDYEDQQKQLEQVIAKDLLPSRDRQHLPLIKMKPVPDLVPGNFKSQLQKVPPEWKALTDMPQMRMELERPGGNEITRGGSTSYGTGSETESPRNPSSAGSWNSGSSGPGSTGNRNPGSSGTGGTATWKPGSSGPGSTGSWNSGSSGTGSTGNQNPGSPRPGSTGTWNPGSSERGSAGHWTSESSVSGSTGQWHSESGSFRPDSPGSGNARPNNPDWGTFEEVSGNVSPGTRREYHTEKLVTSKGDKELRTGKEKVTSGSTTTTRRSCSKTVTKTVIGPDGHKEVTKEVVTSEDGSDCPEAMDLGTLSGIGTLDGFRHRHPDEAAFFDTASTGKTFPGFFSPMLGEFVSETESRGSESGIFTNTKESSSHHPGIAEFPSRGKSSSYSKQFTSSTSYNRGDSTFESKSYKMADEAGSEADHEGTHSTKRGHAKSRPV
Description: 2 ml of solution of Peptide Dendrimer No. 12 or 13 was mixed with SURGIFLO Haemostatic Matrix (a hydrated flowable gelatin matrix) to form a paste of each peptide. Each paste was sterilised by irradiation with ^60Co gamma rays at a dose of 30 kGy, and then stored at room temperature. Samples of the sterilised pastes were used for testing after storage for two and four weeks.
After storage, peptide dendrimers were extracted from each paste using […] HEPES buffer. 30 μL of each extract (with a peptide concentration of about 0.25 mg/ml) was added to 100 μL of human fibrinogen at 3 mg/ml, and the ability of each dendrimer to polymerise fibrinogen (the ‘clotting’ activity) at 37° C. was determined using a Sigma Amelung KC4 Delta coagulation analyser. The polymerisation activity of non-irradiated control samples was also determined.

[1] = biological target: T2, purified human fibrinogen (Homo sapiens, UniProt P02675+P02679); test: Polymerisation (clotting) of purified fibrinogen, Sigma Amelung KC4 Delta coagulation analyser
T2 sequence (P02679 27-433 limits assumed): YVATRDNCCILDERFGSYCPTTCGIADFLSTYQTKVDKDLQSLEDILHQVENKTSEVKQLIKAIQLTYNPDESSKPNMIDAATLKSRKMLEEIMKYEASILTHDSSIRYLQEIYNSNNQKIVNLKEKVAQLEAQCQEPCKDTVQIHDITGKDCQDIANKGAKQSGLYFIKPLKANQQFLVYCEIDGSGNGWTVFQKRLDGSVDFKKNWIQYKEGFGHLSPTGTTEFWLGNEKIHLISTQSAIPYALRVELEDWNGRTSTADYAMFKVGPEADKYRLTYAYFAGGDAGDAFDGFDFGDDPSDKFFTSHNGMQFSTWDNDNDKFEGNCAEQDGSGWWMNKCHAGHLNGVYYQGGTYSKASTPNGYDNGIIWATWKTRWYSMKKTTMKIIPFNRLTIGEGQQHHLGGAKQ
T2 sequence (P02675 31-491): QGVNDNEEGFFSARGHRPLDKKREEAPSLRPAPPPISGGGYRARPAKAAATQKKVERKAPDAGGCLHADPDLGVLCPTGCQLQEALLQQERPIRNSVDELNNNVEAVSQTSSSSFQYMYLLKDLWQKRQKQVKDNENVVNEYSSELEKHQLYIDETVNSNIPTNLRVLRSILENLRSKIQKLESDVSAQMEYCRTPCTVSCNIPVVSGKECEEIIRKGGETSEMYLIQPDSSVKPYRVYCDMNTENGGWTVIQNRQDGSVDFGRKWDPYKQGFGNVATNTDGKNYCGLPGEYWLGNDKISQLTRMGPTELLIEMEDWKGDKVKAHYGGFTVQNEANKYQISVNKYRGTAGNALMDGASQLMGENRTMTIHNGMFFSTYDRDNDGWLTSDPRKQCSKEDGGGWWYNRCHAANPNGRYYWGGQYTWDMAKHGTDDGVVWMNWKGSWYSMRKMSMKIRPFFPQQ
T2 sequence (P02671 20-629 partner limits assumed): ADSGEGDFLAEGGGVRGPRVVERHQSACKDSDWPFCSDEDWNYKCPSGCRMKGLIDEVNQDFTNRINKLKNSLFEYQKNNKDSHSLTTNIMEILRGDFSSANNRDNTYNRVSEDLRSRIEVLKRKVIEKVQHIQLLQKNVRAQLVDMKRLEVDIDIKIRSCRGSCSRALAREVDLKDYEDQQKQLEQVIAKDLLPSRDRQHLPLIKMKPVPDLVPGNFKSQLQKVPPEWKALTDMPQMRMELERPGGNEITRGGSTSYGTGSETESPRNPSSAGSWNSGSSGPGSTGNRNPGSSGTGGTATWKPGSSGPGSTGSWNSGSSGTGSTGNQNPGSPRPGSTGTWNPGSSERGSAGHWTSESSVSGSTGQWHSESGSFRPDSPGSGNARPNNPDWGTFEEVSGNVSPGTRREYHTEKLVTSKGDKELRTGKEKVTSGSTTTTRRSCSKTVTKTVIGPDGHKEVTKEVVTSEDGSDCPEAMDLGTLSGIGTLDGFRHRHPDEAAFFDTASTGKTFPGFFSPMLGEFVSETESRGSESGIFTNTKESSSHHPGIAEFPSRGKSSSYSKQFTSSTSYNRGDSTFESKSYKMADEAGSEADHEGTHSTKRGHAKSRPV
Description: The ability of Peptide Dendrimer No. 12 to polymerise fibrinogen was assessed. 30 μl of dendrimer in solution, at concentration ranging from 0.005-2 mg/ml, was added to 100 μl purified human fibrinogen at 3 mg/ml (the level of fibrinogen found in the blood). Polymerisation of fibrinogen was analysed using a Sigma Amelung KC4 Delta coagulation analyser.
The concentration of each dendrimer was varied from 0.005-0.5 mg/ml.

[2] = biological target: T3, fibrinogen in human plasma (Homo sapiens, UniProt P02675+P02679); test: Polymerisation of fibrinogen in human plasma, KC4 Delta coagulation analyzer; conditions: dendrimer 0.25 mg/ml, 30 μL to 100 μL human plasma, 37° C.
T3 construct: from tissue; host or cells: human plasma
T3 sequence (P02679 27-433 limits assumed): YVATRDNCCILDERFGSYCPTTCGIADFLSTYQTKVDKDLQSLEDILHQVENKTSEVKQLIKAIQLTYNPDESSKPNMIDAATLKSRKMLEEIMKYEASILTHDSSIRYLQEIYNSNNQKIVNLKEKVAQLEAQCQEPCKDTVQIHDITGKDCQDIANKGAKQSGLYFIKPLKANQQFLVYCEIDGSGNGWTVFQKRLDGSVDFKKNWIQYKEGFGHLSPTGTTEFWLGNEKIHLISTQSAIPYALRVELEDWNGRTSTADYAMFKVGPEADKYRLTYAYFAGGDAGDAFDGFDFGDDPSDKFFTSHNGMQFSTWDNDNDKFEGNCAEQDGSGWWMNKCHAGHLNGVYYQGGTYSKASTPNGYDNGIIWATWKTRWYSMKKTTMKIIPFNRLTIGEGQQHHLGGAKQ
T3 sequence (P02675 31-491): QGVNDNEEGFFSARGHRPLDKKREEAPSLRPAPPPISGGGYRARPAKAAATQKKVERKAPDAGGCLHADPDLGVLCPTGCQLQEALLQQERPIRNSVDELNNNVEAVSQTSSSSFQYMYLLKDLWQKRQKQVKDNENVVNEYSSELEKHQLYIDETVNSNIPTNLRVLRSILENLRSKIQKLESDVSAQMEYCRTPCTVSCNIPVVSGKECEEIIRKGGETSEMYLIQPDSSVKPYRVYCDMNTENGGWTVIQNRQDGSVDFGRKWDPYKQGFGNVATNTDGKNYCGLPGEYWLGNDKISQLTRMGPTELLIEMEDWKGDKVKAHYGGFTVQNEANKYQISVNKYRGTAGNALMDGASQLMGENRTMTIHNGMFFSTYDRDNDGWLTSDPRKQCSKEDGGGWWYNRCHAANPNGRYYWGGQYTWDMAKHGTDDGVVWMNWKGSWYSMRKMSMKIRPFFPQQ
T3 sequence (P02671 20-629 partner limits assumed): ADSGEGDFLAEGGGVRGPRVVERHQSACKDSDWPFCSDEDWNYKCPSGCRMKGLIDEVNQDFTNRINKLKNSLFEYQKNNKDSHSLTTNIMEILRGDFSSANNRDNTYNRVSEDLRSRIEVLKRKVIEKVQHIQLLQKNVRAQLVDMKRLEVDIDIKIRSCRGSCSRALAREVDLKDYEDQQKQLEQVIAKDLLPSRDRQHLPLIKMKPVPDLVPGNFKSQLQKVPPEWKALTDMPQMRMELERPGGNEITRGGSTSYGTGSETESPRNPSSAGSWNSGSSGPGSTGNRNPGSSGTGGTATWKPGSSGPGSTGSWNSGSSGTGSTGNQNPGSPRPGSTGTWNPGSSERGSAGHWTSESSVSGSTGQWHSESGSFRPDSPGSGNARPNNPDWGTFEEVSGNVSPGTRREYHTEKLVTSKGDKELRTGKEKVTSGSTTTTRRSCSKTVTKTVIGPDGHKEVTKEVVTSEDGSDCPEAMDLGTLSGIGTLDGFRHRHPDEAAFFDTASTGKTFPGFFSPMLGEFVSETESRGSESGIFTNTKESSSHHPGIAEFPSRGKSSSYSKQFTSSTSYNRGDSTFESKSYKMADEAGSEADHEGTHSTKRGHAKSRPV
Description: 30 μL of each dendrimer (at a concentration of 0.25 mg/ml) was added to 100 μL human plasma at 37° C., and polymerisation of fibrinogen was determined using a Sigma Amelung KC4 Delta coagulation analyzer.

Peptide Dendrimer No. 12 (peptide GPRPG; chain KKKKK)
Clotting activity, Non-irradiated control (human fibrinogen; extract from SURGIFLO paste, about 0.25 mg/ml peptide, not irradiated): 1 s
Clotting activity, Storage for 2 weeks post irradiation (human fibrinogen; paste irradiated 30 kGy 60Co gamma, stored 2 weeks at room temperature, about 0.25 mg/ml): 1 s
Clotting activity, Storage for 4 weeks post irradiation (human fibrinogen; paste irradiated 30 kGy 60Co gamma, stored 4 weeks at room temperature, about 0.25 mg/ml): 1 s
copolymerisation with fibrinogen (clotting time) ([1]; dendrimer 0.005-2 mg/ml, fibrinogen 3 mg/ml): able to copolymerise with fibrinogen almost instantaneously, even at very low concentrations
clotting time at high dendrimer concentration ([1]; dendrimer concentrations above 0.5 mg/ml, fibrinogen 3 mg/ml): increase in clotting time
clotting ([1]; dendrimer range ~0.02-0.5 mg/ml): almost instantaneous clotting
ability to polymerise fibrinogen in human plasma [2]: able to polymerise fibrinogen in human plasma
clotting time in human plasma [2]: less than one

Peptide Conjugate No. 1 (peptide 1 GPRP; peptide 2 GPRP; also: peptide conjugate of two chains, linkage not given here)
activity of mixtures of peptide conjugate (2 mg/ml) with Peptide Dendrimer No. 3 or 4 in copolymerising with fibrinogen ([1]; conjugate 2 mg/ml, dendrimer 0.025-0.5 mg/ml): not active

Source: patent US20180140739A1, “HAEMOSTATIC DEVICE” (HAEMOSTATIX LIMITED, priority 2015, published 2018)
